Test results: US20070224194A1, “Methods for Inhibiting Angiogenesis and/or Lymphangiogenesis” (LUDWIG INSTITUTE FOR CANCER RESEARCH, priority 2004, published 2007)
Read-outs that look alike come from different tables or passages of the source.

Experiments:
VEGFR-1-Ig = target: T1, VEGFR-1-Ig (human, UniProt P17948 27-758); experiment: pull-down with receptor-Ig on protein-A sepharose from LoVo conditioned medium, Western blot
T1 construct: extracellular domain; R&D Systems is named as its source; used as a negative control; also called soluble fusion protein of the extracellular domain of human VEGFR-1 and the Fc portion of human IgG; not shown: Fc portion of human IgG
T1 sequence (P17948 27-758): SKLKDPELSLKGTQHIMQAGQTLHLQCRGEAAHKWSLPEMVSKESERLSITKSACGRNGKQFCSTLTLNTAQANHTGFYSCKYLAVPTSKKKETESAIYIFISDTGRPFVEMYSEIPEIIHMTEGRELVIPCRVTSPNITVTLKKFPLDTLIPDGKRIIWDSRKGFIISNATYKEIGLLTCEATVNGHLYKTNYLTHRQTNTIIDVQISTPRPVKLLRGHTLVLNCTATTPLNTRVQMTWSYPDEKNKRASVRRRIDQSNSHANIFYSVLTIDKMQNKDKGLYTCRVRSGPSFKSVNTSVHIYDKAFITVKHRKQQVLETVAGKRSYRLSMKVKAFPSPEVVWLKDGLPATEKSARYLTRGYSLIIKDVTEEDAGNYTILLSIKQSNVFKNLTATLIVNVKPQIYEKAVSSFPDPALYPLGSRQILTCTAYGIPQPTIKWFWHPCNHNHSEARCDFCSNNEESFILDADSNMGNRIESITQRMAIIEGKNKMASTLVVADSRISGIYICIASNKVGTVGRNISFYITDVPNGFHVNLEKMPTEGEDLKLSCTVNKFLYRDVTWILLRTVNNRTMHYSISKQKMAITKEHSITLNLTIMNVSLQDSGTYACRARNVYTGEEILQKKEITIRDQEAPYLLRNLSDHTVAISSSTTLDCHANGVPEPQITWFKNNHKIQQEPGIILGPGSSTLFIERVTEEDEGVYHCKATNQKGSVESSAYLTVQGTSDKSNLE
Procedure: (§1) Binding to receptor extracellular domains was examined using soluble fusion proteins consisting of the extracellular domains of human VEGFR-1, VEGFR-2 or VEGFR-3 joined to the Fe portions of human IgG (referred to as VEGFR-1-Ig (R&D Systems), VEGFR-2-Ig and VEGFR-3-Ig) (Achen et al, Proc. Natl. Acad. Sci. USA 95 548-553, 1998). Protein-A sepharose beads were incubated overnight with the conditioned media of 293EBNA cells expressing VEGFR-1-Ig, VEGFR-2-Ig or VEGFR-3-Ig to precipitate the soluble receptor constructs. The soluble receptors bound to protein-A sepharose beads were recovered by centrifugation (5 minutes, 250×g, 4° C.) and washed twice with binding buffer (0.5% (w/v) BSA, 0.02% (v/v) Tween 20, 10 μg/ml heparin in phosphate buffered saline). The soluble receptors bound to protein-A sepharose beads were then incubated with the conditioned media of LoVo cells, that had been co-transfected with pVDAPEX FULL-N-FLAG and pcDNA3:furin, for three hours at room temperature, and washed twice with binding buffer. Proteins bound to the VEGFR-2-Ig and VEGFR-3-Ig constructs were analysed by reducing SDS-PAGE and Western blotting with a biotinylated antibody against the VHD of human VEGF-D (R&D Systems), followed by Streptavidin-horse radish peroxidase conjugate (Zymed).

[1] = target: T2, extracellular domain of human VEGFR-3 (VEGFR-3-Ig) (Homo sapiens, UniProt P35916); experiment: Precipitation with soluble receptor VEGFR-3-Ig from LoVo conditioned media; format: binding; conditions: conditioned media of LoVo cells co-transfected with VEGF-D-FULL-N-FLAG and furin
T2 construct: soluble fusion proteins consisting of the extracellular domains of human VEGFR-1, VEGFR-2 or VEGFR-3; made in house; host or cells: 293EBNA cells (conditioned media, captured on protein-A sepharose)
T2 sequence (P35916 25-775 limits assumed): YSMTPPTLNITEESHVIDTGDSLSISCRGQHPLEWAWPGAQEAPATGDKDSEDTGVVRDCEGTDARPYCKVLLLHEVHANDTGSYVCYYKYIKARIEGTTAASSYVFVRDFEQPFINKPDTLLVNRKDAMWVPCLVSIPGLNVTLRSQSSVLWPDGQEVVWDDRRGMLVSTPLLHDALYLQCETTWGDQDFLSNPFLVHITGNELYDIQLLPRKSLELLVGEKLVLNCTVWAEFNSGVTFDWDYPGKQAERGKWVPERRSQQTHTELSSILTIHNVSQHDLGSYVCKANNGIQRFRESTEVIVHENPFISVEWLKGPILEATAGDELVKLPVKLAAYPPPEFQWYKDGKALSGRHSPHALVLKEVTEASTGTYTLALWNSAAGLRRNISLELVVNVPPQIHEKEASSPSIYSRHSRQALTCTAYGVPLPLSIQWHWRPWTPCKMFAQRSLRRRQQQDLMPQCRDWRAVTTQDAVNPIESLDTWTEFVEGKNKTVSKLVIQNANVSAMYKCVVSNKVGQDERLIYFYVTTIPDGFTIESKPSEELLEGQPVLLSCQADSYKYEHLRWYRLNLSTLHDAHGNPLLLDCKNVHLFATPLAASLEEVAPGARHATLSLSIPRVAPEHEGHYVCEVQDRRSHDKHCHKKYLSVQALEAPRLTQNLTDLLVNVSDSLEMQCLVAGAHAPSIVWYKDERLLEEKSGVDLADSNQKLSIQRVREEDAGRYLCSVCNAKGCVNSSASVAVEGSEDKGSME
Procedure: as §1

[2] = target: T3, extracellular domain of human VEGFR-2 (VEGFR-2-Ig) (Homo sapiens, UniProt P35968); experiment: Precipitation with soluble receptor VEGFR-2-Ig from LoVo conditioned media; format: binding; conditions: conditioned media of LoVo cells co-transfected with VEGF-D-FULL-N-FLAG and furin
T3 construct: soluble fusion proteins consisting of the extracellular domains of human VEGFR-1, VEGFR-2 or VEGFR-3; made in house; host or cells: 293EBNA cells (conditioned media, captured on protein-A sepharose)
T3 sequence (P35968 20-764 limits assumed): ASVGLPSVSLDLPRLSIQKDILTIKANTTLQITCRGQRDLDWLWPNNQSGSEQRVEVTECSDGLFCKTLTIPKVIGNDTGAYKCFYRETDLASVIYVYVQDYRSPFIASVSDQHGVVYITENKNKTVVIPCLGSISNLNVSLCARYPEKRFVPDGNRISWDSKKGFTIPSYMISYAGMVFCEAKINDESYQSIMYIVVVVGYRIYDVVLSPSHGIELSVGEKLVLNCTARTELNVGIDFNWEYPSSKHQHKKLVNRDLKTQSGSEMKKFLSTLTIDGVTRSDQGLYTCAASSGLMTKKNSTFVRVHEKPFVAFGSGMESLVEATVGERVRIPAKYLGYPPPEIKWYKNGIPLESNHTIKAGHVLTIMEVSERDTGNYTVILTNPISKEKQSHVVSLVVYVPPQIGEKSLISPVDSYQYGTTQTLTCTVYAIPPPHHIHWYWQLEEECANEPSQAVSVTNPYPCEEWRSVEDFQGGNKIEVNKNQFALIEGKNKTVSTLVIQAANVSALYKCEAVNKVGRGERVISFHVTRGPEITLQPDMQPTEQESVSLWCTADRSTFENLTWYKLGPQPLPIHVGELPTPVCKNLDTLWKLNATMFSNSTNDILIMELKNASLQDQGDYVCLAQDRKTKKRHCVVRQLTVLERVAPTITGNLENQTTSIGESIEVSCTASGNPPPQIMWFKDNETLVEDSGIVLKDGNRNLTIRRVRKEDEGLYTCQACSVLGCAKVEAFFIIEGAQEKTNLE
Procedure: as §1

VEGFR-3 [3] = target: T4, VEGFR-3 (Homo sapiens, UniProt P35916); conditions: cited from earlier work
T4 sequence (P35916 25-1363): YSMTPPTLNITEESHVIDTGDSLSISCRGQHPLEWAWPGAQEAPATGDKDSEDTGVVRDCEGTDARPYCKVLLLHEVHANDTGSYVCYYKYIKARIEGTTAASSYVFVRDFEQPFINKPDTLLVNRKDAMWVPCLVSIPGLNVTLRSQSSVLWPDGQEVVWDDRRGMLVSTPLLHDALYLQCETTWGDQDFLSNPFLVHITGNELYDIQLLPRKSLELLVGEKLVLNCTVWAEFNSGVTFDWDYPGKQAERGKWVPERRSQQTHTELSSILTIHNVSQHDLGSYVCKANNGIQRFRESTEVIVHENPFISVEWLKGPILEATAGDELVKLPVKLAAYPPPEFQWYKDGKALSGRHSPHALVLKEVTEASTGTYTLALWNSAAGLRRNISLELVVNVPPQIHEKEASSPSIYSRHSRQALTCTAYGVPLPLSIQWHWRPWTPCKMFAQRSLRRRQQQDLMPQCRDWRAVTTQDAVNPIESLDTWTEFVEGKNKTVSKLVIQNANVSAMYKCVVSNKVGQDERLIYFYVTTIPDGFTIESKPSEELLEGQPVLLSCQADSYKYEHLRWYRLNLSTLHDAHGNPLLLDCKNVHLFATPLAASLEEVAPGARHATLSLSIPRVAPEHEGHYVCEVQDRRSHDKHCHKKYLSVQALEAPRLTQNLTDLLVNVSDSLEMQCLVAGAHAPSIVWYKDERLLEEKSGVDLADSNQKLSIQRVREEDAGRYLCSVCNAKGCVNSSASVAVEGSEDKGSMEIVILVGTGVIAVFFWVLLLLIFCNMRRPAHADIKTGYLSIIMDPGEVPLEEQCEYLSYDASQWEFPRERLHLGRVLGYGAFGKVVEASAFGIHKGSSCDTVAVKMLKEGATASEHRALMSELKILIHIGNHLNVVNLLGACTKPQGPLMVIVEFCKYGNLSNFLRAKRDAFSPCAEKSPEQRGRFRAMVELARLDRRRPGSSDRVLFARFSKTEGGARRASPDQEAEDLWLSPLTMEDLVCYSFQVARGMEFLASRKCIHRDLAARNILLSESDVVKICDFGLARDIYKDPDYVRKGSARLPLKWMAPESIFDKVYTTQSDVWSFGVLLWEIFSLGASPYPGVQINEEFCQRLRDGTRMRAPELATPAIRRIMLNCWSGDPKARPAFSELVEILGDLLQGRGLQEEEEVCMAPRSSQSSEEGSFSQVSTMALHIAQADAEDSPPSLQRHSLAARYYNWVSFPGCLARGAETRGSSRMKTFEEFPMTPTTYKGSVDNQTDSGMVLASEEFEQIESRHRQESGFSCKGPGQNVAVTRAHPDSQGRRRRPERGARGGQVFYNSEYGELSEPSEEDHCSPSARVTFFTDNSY

VEGFR-2 [4] = target: T5, VEGFR-2 (Homo sapiens, UniProt P35968); conditions: full-length form that could be processed, cited from earlier work
T5 sequence (P35968 20-1356): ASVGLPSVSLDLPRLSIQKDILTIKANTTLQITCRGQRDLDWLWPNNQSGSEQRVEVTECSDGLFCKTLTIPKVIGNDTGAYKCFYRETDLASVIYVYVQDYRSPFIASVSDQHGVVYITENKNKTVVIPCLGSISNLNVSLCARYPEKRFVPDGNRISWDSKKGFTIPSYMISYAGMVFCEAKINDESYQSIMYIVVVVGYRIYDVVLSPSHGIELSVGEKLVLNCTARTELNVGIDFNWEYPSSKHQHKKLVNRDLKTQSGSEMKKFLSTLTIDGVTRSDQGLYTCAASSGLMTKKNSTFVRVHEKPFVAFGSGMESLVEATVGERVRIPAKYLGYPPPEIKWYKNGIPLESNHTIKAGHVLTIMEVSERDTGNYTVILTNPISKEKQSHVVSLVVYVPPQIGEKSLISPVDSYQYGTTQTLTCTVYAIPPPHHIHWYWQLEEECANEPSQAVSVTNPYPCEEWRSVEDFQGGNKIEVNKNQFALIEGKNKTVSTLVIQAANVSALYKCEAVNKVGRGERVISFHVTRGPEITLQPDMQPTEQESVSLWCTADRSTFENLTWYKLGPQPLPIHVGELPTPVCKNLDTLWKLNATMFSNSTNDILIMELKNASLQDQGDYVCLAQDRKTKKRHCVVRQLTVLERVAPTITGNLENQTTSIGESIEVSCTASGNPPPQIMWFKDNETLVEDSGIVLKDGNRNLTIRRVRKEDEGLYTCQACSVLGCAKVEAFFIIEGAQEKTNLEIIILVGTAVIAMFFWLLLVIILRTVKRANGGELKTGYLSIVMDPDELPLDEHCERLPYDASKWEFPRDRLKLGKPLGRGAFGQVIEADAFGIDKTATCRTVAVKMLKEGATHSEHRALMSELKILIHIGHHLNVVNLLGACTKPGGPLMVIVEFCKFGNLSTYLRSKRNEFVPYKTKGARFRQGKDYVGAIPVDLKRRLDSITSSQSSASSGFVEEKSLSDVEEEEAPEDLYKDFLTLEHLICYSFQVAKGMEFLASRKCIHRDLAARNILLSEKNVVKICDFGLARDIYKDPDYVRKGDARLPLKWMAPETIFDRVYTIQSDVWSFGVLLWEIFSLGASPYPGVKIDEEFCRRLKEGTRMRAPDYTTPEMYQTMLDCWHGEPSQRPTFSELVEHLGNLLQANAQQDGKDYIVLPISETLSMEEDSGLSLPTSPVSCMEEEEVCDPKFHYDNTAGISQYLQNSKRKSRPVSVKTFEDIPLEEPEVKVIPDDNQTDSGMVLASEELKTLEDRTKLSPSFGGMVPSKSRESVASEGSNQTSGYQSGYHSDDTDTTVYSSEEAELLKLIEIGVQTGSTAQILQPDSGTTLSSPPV

VEGFR-2 [5] = target: T5, VEGFR-2; experiment: Biosensor analysis (surface plasmon resonance) of VEGF-D ligands on VEGFR-2; format: binding; conditions: 1:1 Langmurian model
Procedure: (§2) To determine the relative affinities of the ligands VEGF-DSSTS.IISS, VEGF-D-FULL-N-FLAG and mature VEGF-D (designated VEGF-DΔNΔC) for VEGFR-2 and VEGFR-3, the relative binding kinetics for these interactions was analyzed by biosensor analysis using surface plasmon resonance detection (Nice et al., Bioessays, 21:339-352, 1999). The preparations of VEGF-DSSTS.IISS and VEGF-DΔNΔC used for this analysis each consisted of one VEGF-D species devoid of other forms of VEGF-D but the preparation of VEGF-D-FULL-N-FLAG did contain traces of partially processed as well as full-length material, reflecting the capacity of wild-type full-length VEGF-D to be proteolytically processed in the 293EBNA cell cultures) from which these proteins were purified (see FIG. 10B). The binding constants for the interactions were obtained by analysis of the initial dissociation phase to obtain the kd, which was then used to constrain a global analysis of the association region of the curves, using regions of the curves where a 1:1 Langmurian model appeared to be operative.

VEGFR-3 [6] = target: T4, VEGFR-3; experiment: Biosensor analysis (surface plasmon resonance) of VEGF-D ligands on VEGFR-3; format: binding
Procedure: as §2

B1: mature form of VEGF-D generated by furin (ligand, human, UniProt O43915 89-205, looked up)
chain: FAATFYDIETLKVIDEEWQRTQCSPRETCVEVASELGKSTNTFFKPPCVNVFRCGGCCNEESLICMNTSTSYISKQLFEISVPLTSVPELVPVKVANHTGCKCLPTAPRHPYSIIRR
notes: range 89-205; Present in conditioned medium of LoVo cells co-transfected with pVDAPEX FULL-N-FLAG and pcDNA3:furin; not purified; also called ˜21 kDa VEGF-D species; mature VEGF-D
VEGFR-1-Ig
  binding result: no binding

B2: mature form of VEGF-D generated by furin: ~21 kDa VEGF-D species from LoVo cells co-transfected with VEGF-D-FULL-N-FLAG and furin expression constructs (protein)
chain: B1 chain
[1]
  binding to the extracellular domain of VEGFR-3: binds
[2]
  binding to the extracellular domain of VEGFR-2: binds

B3: mature VEGF-D: mature form of VEGF-D consisting of dimers of the VHD, lacking both propeptides (protein)
chain: B1 chain
VEGFR-3 [3]
  affinity for VEGFR-3 relative to unprocessed VEGF-D, previously reported: ~40 fold
VEGFR-2 [4]
  affinity for VEGFR-2 relative to full-length (unprocessed) VEGF-D, previously reported: ~290 fold
VEGFR-2 [4]; listed as mature form of VEGF-D
  affinity for VEGFR-2 relative to full-length (unprocessed) VEGF-D, previously reported: approximately 290 fold
VEGFR-2 [5]
  apparent affinity for VEGFR-2 relative to unprocessed mutant VEGF-DSSTS.IISS: ~17,000 fold
VEGFR-3 [6]
  affinity for VEGFR-3 relative to VEGF-DSSTS.IISS: ~18 fold
